Experimental data taken from patent US20240309087A1 (SHANGHAI JUNSHI BIOSCIENCES, published 2024).
Changes are numbered by the printed parent chain.

T1: human CD112R on Jurkat CD112R effector cells (human, UniProt Q6DKI7 1-326)
T1 sequence (looked up): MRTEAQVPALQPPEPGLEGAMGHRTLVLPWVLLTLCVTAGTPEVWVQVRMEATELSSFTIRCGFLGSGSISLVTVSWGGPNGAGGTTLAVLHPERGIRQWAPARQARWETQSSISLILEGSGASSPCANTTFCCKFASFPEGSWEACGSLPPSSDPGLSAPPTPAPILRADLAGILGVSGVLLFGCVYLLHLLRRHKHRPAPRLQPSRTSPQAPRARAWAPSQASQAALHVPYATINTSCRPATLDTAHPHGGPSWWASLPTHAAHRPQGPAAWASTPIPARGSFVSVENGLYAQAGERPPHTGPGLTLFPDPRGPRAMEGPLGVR

T2: hCD112R mFC recombinant protein (human; murine, UniProt Q6DKI7 41-160)
T2 construct: range 41-160; expressed in 293E cells; also called hCD112R ECD mFC; hCD112R-ECD-mFC; not shown: murine IgG2a Fc domain (MX2-mFc vector)
T2 sequence (looked up): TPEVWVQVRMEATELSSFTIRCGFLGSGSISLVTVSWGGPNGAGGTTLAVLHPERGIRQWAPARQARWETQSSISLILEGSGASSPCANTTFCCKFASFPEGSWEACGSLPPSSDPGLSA

B1: Hu2 (antibody, IgG4, V domains shown)
VH: EVQLVESGGGLVQPGGSLRLSCAASGFTFSSYHMSWVRQAPGKGLELVAAINSNDINTYYLDTVKGRFTISRDIAKNSLYLQMNSLRAEDTAVYYCARHEDYYGFAMDYWGQGTLVTVSS
VL: AIQMTQSPSSLSASVGDRVTITCKASQSVTNDVAWYQQKPGKAPKLLIYYVSNHYTGVPSRFSGSGSGTDFTLTISSLQPEDFATYFCQQAYRSPWTFGQGTKLEIK
notes: humanized IgG4; also called Hu-02
B2: Hu51 (antibody, IgG4, V domains shown)
VH: B1 VH with Q13K, A49S, D55G, I74N
VL: EIVMTQSPPTLSLSPGERVTLSCKASQSVSNDVAWYQEKPGQAPRLLIYYVSHRFTGIPARFSGSGSGTDFTLTISSLQPEDFAVYYCHQAYRSPWTFGQGTKLEIK
notes: humanized IgG4
B3: Hu26 (antibody, IgG4, V domains shown)
VH: EVQLVESGGGLVQPGGSLRLSCAASGFTFSSYHMSWVRQAPGKGLELVAAISRDGDSTYYPDTVKGRFTISRDNAKNSLYLQMNSLRAEDTAVYYCSRHEDYFGFAMDSWGQGTLVTVSS
VL: B1 VL
notes: humanized IgG4
B4: Hu9 (antibody, IgG4, V domains shown)
VH: B1 VH with Q13K, A49S
VL: B2 VL
notes: humanized IgG4; also called Hu-09
B5: Hu3 (antibody, IgG4, V domains shown)
VH: B1 VH
VL: B2 VL
notes: humanized IgG4; also called Hu-03
B6: Hu15 (antibody, IgG4, V domains shown)
VH: B3 VH with Q13K, A49S
VL: B2 VL
notes: humanized IgG4
B7: Hu5 (antibody, IgG4, V domains shown)
VH: B1 VH
VL: B1 VL with A1D, T30S, H54R, Y55F
notes: humanized IgG4; also called Hu-05
B8: Hu8 (antibody, IgG4, V domains shown)
VH: B1 VH with Q13K, A49S
VL: B1 VL
notes: humanized IgG4; also called Hu-08
B9: Hu21 (antibody, IgG4, V domains shown)
VH: B3 VH with Q13K, A49S, N74D, K76E
VL: B2 VL
notes: humanized IgG4
B10: Hu6 (antibody, IgG4, V domains shown)
VH: B1 VH
VL: B2 VL with E38Q, H53N, Y87F, H89Q
notes: humanized IgG4; also called Hu-06
B11: Hu53 (antibody, IgG4, V domains shown)
VH: B1 VH with Q13K, A49S, D55G, I74N
VL: B1 VL with A1D, T30S, H54R, Y55F
notes: humanized IgG4
B12: Hu20 (antibody, IgG4, V domains shown)
VH: B3 VH with Q13K, A49S, N74D, K76E
VL: B1 VL
notes: humanized IgG4
B13: Hu11 (antibody, IgG4, V domains shown)
VH: B1 VH with Q13K, A49S
VL: B1 VL with A1D, T30S, H54R, Y55F
notes: humanized IgG4
B14: Hu14 (antibody, IgG4, V domains shown)
VH: B3 VH with Q13K, A49S
VL: B1 VL
notes: humanized IgG4
B15: Hu27 (antibody, IgG4, V domains shown)
VH: B3 VH
VL: B2 VL
notes: humanized IgG4
B16: Hu56 (antibody, IgG4, V domains shown)
VH: B1 VH with V37I, D55G, I74N
VL: B1 VL
notes: humanized IgG4
B17: Hu12 (antibody, IgG4, V domains shown)
VH: B1 VH with Q13K, A49S
VL: B2 VL with E38Q, H53N, Y87F, H89Q
notes: humanized IgG4

What was measured:
[1] = molecular target: T1, human CD112R on Jurkat CD112R effector …; test: cell-based or functional assay
[2] = molecular target: T2, hCD112R mFC recombinant protein; test: ELISA, coated hCD112R-ECD-mFC
Protocol: (§1) A plate was coated with a hCD112R-ECD-mFC protein (1.5 μg/mL) at a fixed concentration, and the humanized anti-CD112R antibodies diluted in a gradient (initial concentration: 1 μg/mL, 2.5-fold gradient dilution, 12 concentration gradients in total) were added to bind to the antigen. HRP-conjugated goat anti-human antibody IgG (Fc specific) (Sigma, A0170) was subjected to a 5000-fold dilution and used as a detection antibody for detection. The color development was performed with 0.1 mg/mL TMB, and finally stopped with 2 M hydrochloric acid. The plate was read at 420 nm/620 nm. EC₅₀ was obtained by fitting with a four-parameter logistic regression (4PL) model. The […] were COM701 (anti-CD112R antibody, Compugen, obtained by expression and purification according to the sequences in US20180280506A1) and the anti-KLH hu-IgG4 antibody.

[3] = molecular target: T2, hCD112R mFC recombinant protein; test: ELISA, coated hCD112R-ECD-mFC; EC50 COM701/EC50 antibody
Protocol: as §1

[4] = molecular target: T2, hCD112R mFC recombinant protein; test: FACS competition, hCD112R mFc on CHO CD112 cells
Protocol: (§2) Cells CHO CD112 overexpressing human CD112 were co-incubated with a hCD112R mFc protein solution (5 μg/mL) prepared in a staining buffer (PBS+1% FBS), and the humanized anti-CD112R antibodies or the control antibodies at different concentrations (initial concentration: 100 μg/mL, 3-fold dilution, 10 concentration gradients) at 4° C. for 30 min. Unbound antibodies were then washed with a staining buffer and the cells were incubated with 1% (v/v) goat anti-mouse IgG Fc fluorescent secondary antibodies (Jackson ImmunoResearch) prepared in a staining buffer at 4° C. for 30 min in the dark. Finally, the cells were collected by using a flow cytometer (BD Canto II), and the fluorescent antibodies bound to the cell surface were detected. Raw data were analyzed by using FlowJo to obtain MFI values, and a four-parameter curve fitting was performed by using GraphPad Prism software to obtain IC₅₀ values. The positive control and the negative control were COM701 (anti-CD112R antibody, Compugen, obtained by expression and purification according to the sequences in US20180280506A1) and the anti-KLH hu-IgG4 antibody, respectively.

[5] = molecular target: T2, hCD112R mFC recombinant protein; test: FACS competition, hCD112R mFc on CHO CD112 cells; IC50 COM701/IC50 antibody
Protocol: as §2

| EC50, CD112R/CD112 reporter [1] | Relative activity (%), EC50 COM701/EC50 antibody [1] | EC50 [2] | Relative activity (%) [3] | IC50 [4] | Relative activity (%) [5] | Binder |
| --- | --- | --- | --- | --- | --- | --- |
| 0.0577 µg/mL | 110% | 0.00303 µg/mL | 141% | 4.28 µg/mL | 92.9% | B1 |
| 0.0225 µg/mL | 332% | 0.00663 µg/mL | 138% | 3.48 µg/mL | 69.2% | B2 |
| 0.0353 µg/mL | 183% | 0.00351 µg/mL | 190% | 2.47 µg/mL | 145% | B3 |
| 0.0385 µg/mL | 195% | 0.00345 µg/mL | 114% | 4.08 µg/mL | 97.5% | B4 |
| 0.038 µg/mL | 189% | 0.00355 µg/mL | 120% | 4.24 µg/mL | 93.9% | B5 |
| 0.0237 µg/mL | 209% | 0.00451 µg/mL | 127% | 3.29 µg/mL | 109% | B6 |
| 0.0461 µg/mL | 148% | 0.00275 µg/mL | 155% | 4.41 µg/mL | 90.2% | B7 |
| 0.0633 µg/mL | 110% | 0.00309 µg/mL | 127% | 4.62 µg/mL | 86.1% | B8 |
| 0.0285 µg/mL | 179% | 0.0029 µg/mL | 229% | 2.44 µg/mL | 146% | B9 |
| 0.0529 µg/mL | 128% | 0.00271 µg/mL | 158% | 4.46 µg/mL | 89.1% | B10 |
| 0.023 µg/mL | 314% | 0.00541 µg/mL | 169% | 3.18 µg/mL | 75.7% | B11 |
| 0.038 µg/mL | 135% | 0.00518 µg/mL | 128% | 2.25 µg/mL | 159% | B12 |
| 0.0529 µg/mL | 148% | 0.00275 µg/mL | 143% | 4.34 µg/mL | 91.6% | B13 |
| 0.0225 µg/mL | 215% | 0.00443 µg/mL | 129% | 2.21 µg/mL | 162% | B14 |
| 0.0328 µg/mL | 217% | 0.00442 µg/mL | 137% | 2.31 µg/mL | 155% | B15 |
| 0.0243 µg/mL | 276% | 0.00475 µg/mL | 193% | 3.39 µg/mL | 71% | B16 |
| 0.0542 µg/mL | 144% | 0.00288 µg/mL | 136% | 4.18 µg/mL | 95.1% | B17 |
